According to US20250011363A1, “OPTIMIZED SHORTENED PEPTIDE THAT BINDS TO ACETYLCHOLINE RECEPTOR, AND USE THEREOF” (SKINMED CO., LTD., priority 2021, published 2025):

target: acetylcholine receptor (Homo sapiens, UniProt P02708); assay: SPR binding affinity (RU) of optimized 5mer/6mer/7mer peptides, Examples 6-7; conditions: 6mer-2 Top sequence; SPR; peptides tested at 10 μM
Procedure, shortened: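 Using surface plasmon resonance, binding to the acetylcholine receptor was measured for each sequence at a single 10 μM concentration. Values are response units.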

acetylcholine receptor, sequence (P02708 21-457): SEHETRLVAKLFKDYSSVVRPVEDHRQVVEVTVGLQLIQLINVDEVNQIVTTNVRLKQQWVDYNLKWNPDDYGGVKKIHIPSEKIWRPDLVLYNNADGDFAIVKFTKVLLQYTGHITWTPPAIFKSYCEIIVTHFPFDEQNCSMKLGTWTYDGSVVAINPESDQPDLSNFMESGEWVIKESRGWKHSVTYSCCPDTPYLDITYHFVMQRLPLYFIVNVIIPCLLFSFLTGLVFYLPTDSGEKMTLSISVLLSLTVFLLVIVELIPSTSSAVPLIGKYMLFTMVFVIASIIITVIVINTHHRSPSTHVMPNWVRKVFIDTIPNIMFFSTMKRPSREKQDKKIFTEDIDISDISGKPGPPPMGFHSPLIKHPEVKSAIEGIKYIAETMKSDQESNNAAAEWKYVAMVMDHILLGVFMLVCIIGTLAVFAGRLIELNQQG

Row | Substance | Binding affinity [Ru]
1 | 6mer-2-44 (KSVRRK) | 145
2 | 6mer-2-45 (RSLTKK) | 121
3 | 6mer-2-46 (KLYLKR) | 153
4 | 6mer-2-47 (KLQSRR) | 148
5 | 6mer-2-48 (RRFRKK) | 153
6 | 6mer-2-49 (RLRCRK) | 154
7 | 6mer-2-50 (RSQSKR) | 125
8 | 6mer-2-51 (KQFLKK) | 139
9 | 6mer-2-52 (KRQRKK) | 136
10 | 6mer-2-53 (KSLSRR) | 125
11 | 6mer-2-54 (KGRRRR) | 124
12 | 6mer-2-55 (RLFYKK) | 125
13 | 6mer-2-56 (RSQLRR) | 149
14 | 6mer-2-57 (KQRCRR) | 139
15 | 6mer-2-58 (KRLQRK) | 122
16 | 6mer-2-59 (RVLSRK) | 123
17 | 6mer-2-60 (RRLSKK) | 148
18 | 6mer-2-61 (RGFQRK) | 148
19 | 6mer-2-62 (RLVTKR) | 147
20 | 6mer-2-63 (KSFRKR) | 121
21 | 6mer-2-64 (KSVSKK) | 136
22 | 6mer-2-65 (KGVCKR) | 148
23 | 6mer-2-66 (RVIRRR) | 123

Row | Substance | Binding affinity [Ru]
24 | 6mer-2-67 (KLFCKK) | 124
25 | 6mer-2-68 (KGRRRK) | 142
26 | 6mer-2-69 (KWFLRK) | 139
27 | 6mer-2-70 (KRLLRK) | 126
28 | 6mer-2-71 (KQVYKR) | 141
29 | 6mer-2-72 (KRIQKK) | 144
30 | 6mer-2-73 (RLYTKR) | 139
31 | 6mer-2-74 (RWIYKR) | 136
32 | 6mer-2-75 (KLYTRK) | 133
33 | 6mer-2-76 (RRQSRK) | 142
34 | 6mer-2-77 (KQQTRR) | 123
35 | 6mer-2-78 (KRYLKR) | 135
36 | 6mer-2-79 (RQLSKR) | 135
37 | 6mer-2-80 (RRQYKR) | 148
38 | 6mer-2-81 (RRVSRR) | 121
39 | 6mer-2-82 (RGVQKK) | 124
40 | 6mer-2-83 (KQYQRR) | 135
41 | 6mer-2-84 (KQRYKK) | 139
42 | 6mer-2-85 (KSQYKR) | 137
43 | 6mer-2-86 (KQFRRK) | 126
44 | 6mer-2-87 (RRLTKR) | 142
45 | 6mer-2-88 (KSFQRR) | 141
46 | 6mer-2-89 (KSRSKK) | 141

Row | Substance | Binding affinity [Ru]
47 | 6mer-2-90 (KGRTKR) | 133
48 | 6mer-2-91 (KWIYKR) | 121
49 | 6mer-2-92 (KVVCKR) | 131
50 | 6mer-2-93 (RWQTRR) | 133
51 | 6mer-2-94 (RLYQRK) | 126
52 | 6mer-2-95 (RRIYRK) | 142
53 | 6mer-2-96 (KWRQRK) | 154
54 | 6mer-2-97 (RQFYRK) | 154
55 | 6mer-2-98 (RRQQRR) | 148
56 | 6mer-2-99 (RQRSRR) | 151
57 | 6mer-2-100 (RRRCRR) | 142
58 | 6mer-2-101 (RLICRK) | 154
59 | 6mer-2-102 (KVYQKK) | 139
60 | 6mer-2-103 (RVVTKK) | 136
61 | 6mer-2-104 (RGVCRK) | 145
62 | 6mer-2-105 (RGFTRR) | 151
63 | 6mer-2-106 (RWVQRK) | 123
64 | 6mer-2-107 (RGVYRK) | 144
65 | 6mer-2-108 (RVVYKK) | 153
66 | 6mer-2-109 (RRVYRK) | 144
67 | 6mer-2-110 (KSQLKK) | 153
68 | 6mer-2-111 (KLIRRK) | 123
69 | 6mer-2-112 (RLQQKR) | 142

Row | Substance | Binding affinity [Ru]
70 | 6mer-2-113 (KRYSRK) | 145
71 | 6mer-2-114 (KLQYRK) | 121
72 | 6mer-2-115 (KWQYRK) | 144
73 | 6mer-2-116 (KLQRKK) | 126
74 | 6mer-2-117 (KRYTRK) | 148
75 | 6mer-2-118 (KWFSRR) | 135
76 | 6mer-2-119 (RSISKK) | 139
77 | 6mer-2-120 (RRQCRK) | 146
78 | 6mer-2-121 (KRVYRK) | 137
79 | 6mer-2-122 (RVITKK) | 125
80 | 6mer-2-123 (RQFTKR) | 146
81 | 6mer-2-124 (KWQLKR) | 126
82 | 6mer-2-125 (KVQLRR) | 142
83 | 6mer-2-126 (KWLYRR) | 148
84 | 6mer-2-127 (RLYLRK) | 136
85 | 6mer-2-128 (KSYYRR) | 147
86 | 6mer-2-129 (KSVLRK) | 139
87 | 6mer-2-130 (RGVCRR) | 122
88 | 6mer-2-131 (KQQTKR) | 148
89 | 6mer-2-132 (KLYCKK) | 139
90 | 6mer-2-133 (KRRLKK) | 145
91 | 6mer-2-134 (RLFQRK) | 148
92 | 6mer-2-135 (RWFYKK) | 124

Row | Substance | Binding affinity [Ru]
93 | 6mer-2-137 (KVFCKK) | 135
94 | 6mer-2-138 (KQRRRK) | 153
95 | 6mer-2-139 (KLFRKK) | 149
96 | 6mer-2-140 (KGRLKK) | 142
97 | 6mer-2-141 (KWYQKK) | 154
98 | 6mer-2-142 (RWVLRR) | 121
99 | 6mer-2-143 (RRVCRR) | 128
100 | 6mer-2-144 (KSIRRK) | 133
101 | 6mer-2-145 (RQYYKK) | 128
102 | 6mer-2-146 (KQLLKR) | 135
103 | 6mer-2-147 (RQYTKR) | 133
104 | 6mer-2-148 (KGQYKK) | 145
105 | 6mer-2-149 (KGQQRK) | 127
106 | 6mer-2-150 (KRILKR) | 136
107 | 6mer-2-151 (KQLRKR) | 142
108 | 6mer-2-152 (RQFYKR) | 139
109 | 6mer-2-153 (RVYSRR) | 124
110 | 6mer-2-154 (KRVTKR) | 148
111 | 6mer-2-155 (KGVYKK) | 139
112 | 6mer-2-156 (KGLQRR) | 127
113 | 6mer-2-157 (RSYRKK) | 153
114 | 6mer-2-158 (RSFLRR) | 145
115 | 6mer-2-159 (RQYYRK) | 127

Row | Substance | Binding affinity [Ru]
116 | 6mer-2-160 (RVRRKK) | 121
117 | 6mer-2-161 (KWRRKK) | 154
118 | 6mer-2-162 (KVISKR) | 136
119 | 6mer-2-163 (KWFYRR) | 149
120 | 6mer-2-164 (KRQRRK) | 135
121 | 6mer-2-165 (KWFTRR) | 139
122 | 6mer-2-166 (RWLRKR) | 125
123 | 6mer-2-167 (KLFQKR) | 145
124 | 6mer-2-168 (RVFLKR) | 135
125 | 6mer-2-169 (KRQSRR) | 123
126 | 6mer-2-170 (RQYQKK) | 128
127 | 6mer-2-171 (RQQTRR) | 139
128 | 6mer-2-172 (KVIRKK) | 128
129 | 6mer-2-173 (RQQCKK) | 127
130 | 6mer-2-174 (KLLRKR) | 142
131 | 6mer-2-175 (KVYLRK) | 137
132 | 6mer-2-176 (RWIYRR) | 144
133 | 6mer-2-177 (RSVTKK) | 136
134 | 6mer-2-178 (KWLLRR) | 133
135 | 6mer-2-179 (RRVYRR) | 121
136 | 6mer-2-180 (RLRLKR) | 142
137 | 6mer-2-181 (RWQQKK) | 139
138 | 6mer-2-182 (KLFYKK) | 139

Row | Substance | Binding affinity [Ru]
139 | 6mer-2-183 (RLQLRR) | 154
140 | 6mer-2-184 (KWVSRR) | 136
141 | 6mer-2-185 (RGYQKR) | 137
142 | 6mer-2-186 (KQICRK) | 127
143 | 6mer-2-187 (KRRRRK) | 145
144 | 6mer-2-188 (RGYTKR) | 142
145 | 6mer-2-189 (RWQCKK) | 121
146 | 6mer-2-190 (KVYLKR) | 148
147 | 6mer-2-191 (RQLLKR) | 154
148 | 6mer-2-192 (RWFSKK) | 133
149 | 6mer-2-193 (KWISKR) | 127
150 | 6mer-2-194 (KLRLRK) | 154
151 | 6mer-2-195 (KSRQKR) | 154
152 | 6mer-2-196 (KSQRKK) | 121
153 | 6mer-2-197 (RGQYRR) | 126
154 | 6mer-2-198 (KWYYRK) | 139
155 | 6mer-2-199 (RGQYKR) | 137
156 | 6mer-2-200 (RGVQRK) | 121
157 | 6mer-2-201 (KLFLRR) | 148
158 | 6mer-2-202 (RLIYKK) | 122

same assay, conditions: SPR, Resonance Units; peptides tested at 10 μM; 6mer-2 Top sequence (Table 12)

Row | Substance | Binding affinity [Ru]
159 | 6mer-2-203 (KSRTKR) | 135
160 | 6mer-2-204 (RRVQKR) | 142
